Results taken from patent US20220389111A1 (SHANGHAI EPIMAB BIOTHERAPEUTICS, published 2022).

How the values were obtained:
[1] = target: T1, mouse CD39 on CHO-K1 cells (mouse, UniProt P55772 1-510); assay: FACS on CHO-K1-mouse CD39 cells
T1 construct: whole, on cells; also called CHOK1-muCD39
T1 sequence (looked up): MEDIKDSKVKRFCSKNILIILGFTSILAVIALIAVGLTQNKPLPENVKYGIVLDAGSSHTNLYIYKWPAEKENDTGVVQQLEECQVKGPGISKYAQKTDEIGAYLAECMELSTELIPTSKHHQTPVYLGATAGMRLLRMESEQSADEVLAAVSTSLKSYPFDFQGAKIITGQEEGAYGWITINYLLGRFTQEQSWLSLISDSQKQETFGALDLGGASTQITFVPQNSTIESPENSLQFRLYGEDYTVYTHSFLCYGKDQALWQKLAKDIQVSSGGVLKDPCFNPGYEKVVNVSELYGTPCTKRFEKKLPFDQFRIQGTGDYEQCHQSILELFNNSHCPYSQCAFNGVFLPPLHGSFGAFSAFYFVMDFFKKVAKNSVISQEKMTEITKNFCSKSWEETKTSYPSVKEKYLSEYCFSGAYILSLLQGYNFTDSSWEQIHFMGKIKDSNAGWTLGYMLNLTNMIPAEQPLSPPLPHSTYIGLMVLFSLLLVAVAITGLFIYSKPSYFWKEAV
Experimental: The ability of the purified antibodies to bind to cell membrane human CD39, cynomolgus monkey CD39, or mouse CD39 was determined by FACS analysis. CHO-K1 cells stably transfected to overexpress human CD39, cynomolgus monkey CD39, or mouse CD39 (CHO-K1-huCD39 cells, CHO-K1-cyCD39 cells, and CHOK1-muCD39 cells) were generated for use in this assay. Briefly, SK-MEL-28 melanoma cells (ATCC) or CD39 overexpressing stable CHO cell lines were resuspended in PBS containing 2% FBS (FACS buffer) and seeded at 1-5×10⁵ cells/well into U-bottomed plates. Anti-CD39 mAbs or isotype control antibodies diluted in FACS buffer were added to the wells and incubated for 1 hour at 4° C. After washing with FACS buffer, 1:1000 diluted Fluorescence-labeled secondary antibody (Life Technologies/ThermoFisher Scientific) were added and incubated for 30 min. at 4° C. Unbound secondary mAb was removed by washing with FACS buffer three times, and the samples were then read on a FACS instrument. The data were processed by GraphPad software.

muCD39-ECD-His = target: T2, muCD39-ECD-His (mouse, UniProt P55772 38-477); assay: SPR (Biacore T200), antibody captured, antigen in solution
T2 construct: also called C-terminally hexahistidine-tagged murine CD39 extracellular domain
T2 chain: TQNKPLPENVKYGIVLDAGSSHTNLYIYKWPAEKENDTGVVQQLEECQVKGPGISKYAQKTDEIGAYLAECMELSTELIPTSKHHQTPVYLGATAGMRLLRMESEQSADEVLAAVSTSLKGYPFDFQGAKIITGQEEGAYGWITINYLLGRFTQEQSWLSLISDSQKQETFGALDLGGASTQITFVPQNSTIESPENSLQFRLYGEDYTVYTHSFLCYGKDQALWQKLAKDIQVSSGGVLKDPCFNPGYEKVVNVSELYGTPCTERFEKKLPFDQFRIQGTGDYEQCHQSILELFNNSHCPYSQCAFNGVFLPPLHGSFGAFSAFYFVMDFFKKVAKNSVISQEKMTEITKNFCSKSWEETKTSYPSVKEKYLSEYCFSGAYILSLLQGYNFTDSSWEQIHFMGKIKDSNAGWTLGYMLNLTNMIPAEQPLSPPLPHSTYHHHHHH
Experimental: The binding kinetics of purified antibodies was determined by surface plasmon resonance-based measurements using a Biacore T200 instrument (GE Healthcare). Briefly, goat anti-mouse IgG Fc polyclonal antibody (Genway) was directly immobilized across a biosensor chip, and antibody samples were injected over reaction matrices at a flow rate of 5 μl/min. The association and dissociation rate constants, kₒₙ (M⁻¹s⁻¹) and koff(s⁻¹), respectively, were determined by making kinetic binding measurements of anti-CD39 antibody capture at five different concentrations of a recombinant human or mouse CD39 target protein (huCD39-ECD-His or muCD39-ECD-His). The equilibrium dissociation constant KD (M) of the reaction between antibodies and related target proteins was then calculated from the kinetic rate constants using the formula: KD=koff/kₒₙ. Binding affinities for murine anti-human CD39 antibodies mAb635 and mAb638 are shown in Table 9; binding affinity for rat anti-mouse CD39 antibody mAb605 is shown in Table 10.

[2] = target: T3, mouse CD39 protein (recombinant) (mouse, UniProt P55772 38-478, limits assumed); assay: ELISA on coated mouse CD39 protein
T3 construct: also called muCD39; recombinant purified mouse CD39 protein
T3 sequence (looked up): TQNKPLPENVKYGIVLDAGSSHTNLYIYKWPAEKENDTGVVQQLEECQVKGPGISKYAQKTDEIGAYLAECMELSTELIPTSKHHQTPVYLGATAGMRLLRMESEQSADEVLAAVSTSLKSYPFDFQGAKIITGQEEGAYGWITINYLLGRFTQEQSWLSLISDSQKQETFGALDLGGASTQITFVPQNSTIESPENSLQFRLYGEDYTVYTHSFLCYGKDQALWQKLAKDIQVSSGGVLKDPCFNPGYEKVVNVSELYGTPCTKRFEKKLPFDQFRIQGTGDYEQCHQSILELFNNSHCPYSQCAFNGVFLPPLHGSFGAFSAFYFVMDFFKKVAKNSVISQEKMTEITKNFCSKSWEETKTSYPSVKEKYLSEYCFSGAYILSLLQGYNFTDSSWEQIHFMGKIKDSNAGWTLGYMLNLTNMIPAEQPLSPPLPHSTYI
Experimental: To determine if anti-CD39 mAbs bind to human CD39, ELISA plates were incubated overnight at 4° C. with human CD39 protein or mouse CD39 protein diluted in PBS, pH7.4 buffer at 1 μg/ml. Plates were washed four times in washing buffer (PBS containing 0.05% Tween 20), and blocked for 1 hour at 37° C. with 200 μl per well blocking buffer (1% BSA in PBS containing 0.05% Tween 20). After blocking buffer was removed, hybridoma supernatant or diluted purified Abs were added to the wells at 100 μl per well and incubated at 37° C. for 1 hour. The wells were washed four times with washing buffer, and anti-mouse HRP (for mouse anti-human CD39 Ab characterization) or anti-rat HRP (for rat anti-mouse CD39 Ab characterization) (Sigma) were 1:5000 diluted and added to the wells at 100 μl per well. The plates were incubated for 1 hour at 37° C. and washed four times in washing buffer. 100 μl of tetramethylbenzidine (TMB) chromogenic solution were added per well. Following color development, the reaction was stopped with 1N HCl, and absorbance at 450 nm was measured. The data were proceeded by GraphPad software.

B1: mAb605 (antibody, V domains shown)
VH: EVQLVESGGGLVQPGRSLKLSCAASGFTFSDNYLAWVRQAPEKGLEWVASISFEGISTYYGDSVKGRFTISKDNARRTLYLQMNSLRSEDTATYYCARRSYGSRAMDAWGQGTSVTVSS
VL: DVVMTQTPVSLPVGLGGQASISCRSSQSLVHSNGNTYLSWYLKRPGQSPQLLIYRVSSRFSGVPDRFSGSGSGTDFTLKISKVVPGDLGHYYCLQTTQYPYTFGAGTKLELK
notes: rat anti-mouse CD39 hybridoma mAb, IgG2a, κ
EC50 [1]: 2.07 nM | Kd (muCD39-ECD-His): 0.389 nM | koff (muCD39-ECD-His): 0.000109 s⁻¹ | EC50 [2]: 0.09 nM
